In patent US20150197571A1:

What was measured:
[1] = target: human PD-L1 expressed on 300.19 cells (human) (UniProt Q9NZQ7); test: FACS blockade, B7-1-hIgG on 300-hPD-L1 cells, mAb 0.078 ug/ml
[2] = target: human PD-L1 expressed on 300.19 cells (human) (UniProt Q9NZQ7); test: FACS blockade, B7-1-hIgG on 300-hPD-L1 cells, mAb '0.0.39' [sic] ug/ml
[3] = target: human PD-L1 expressed on 300.19 cells (human) (UniProt Q9NZQ7); test: FACS competition, PD-1-Ig on hPD-L1 300 cells, mAb 30 ug/ml
[4] = target: human PD-L1 expressed on 300.19 cells (human) (UniProt Q9NZQ7); test: FACS on hPD-L1 300 cells, antibody 10 ug/ml
[5] = target: human PD-L1 expressed on 300.19 cells (human) (UniProt Q9NZQ7); test: FACS competition, PD-1-Ig on hPD-L1 300 cells, mAb 10 ug/ml
[6] = target: human PD-L1 expressed on 300.19 cells (human) (UniProt Q9NZQ7); test: FACS blockade, B7-1-hIgG on 300-hPD-L1 cells, mAb 20 ug/ml
[7] = target: T1, human PD-L2 expressed on 300.19 cells (human) (UniProt Q9BQ51); test: FACS competition, PD-1-Ig on hPD-L2 300 cells, mAb 0.12 ug/ml
T1 sequence: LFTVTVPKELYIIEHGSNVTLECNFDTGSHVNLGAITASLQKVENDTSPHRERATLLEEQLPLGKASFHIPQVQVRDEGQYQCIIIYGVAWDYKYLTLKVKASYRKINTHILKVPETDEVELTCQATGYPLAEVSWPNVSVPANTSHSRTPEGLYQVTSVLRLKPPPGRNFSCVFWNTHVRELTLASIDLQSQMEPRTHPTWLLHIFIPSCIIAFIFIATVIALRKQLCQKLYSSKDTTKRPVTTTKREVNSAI

[8] = target: human PD-L1 expressed on 300.19 cells (human) (UniProt Q9NZQ7); test: FACS competition, PD-1-Ig on hPD-L1 300 cells, mAb 90 ug/ml
[9] = target: human PD-L1 expressed on 300.19 cells (human) (UniProt Q9NZQ7); test: FACS blockade, B7-1-hIgG on 300-hPD-L1 cells, mAb 2.5 ug/ml
[10] = target: T1, human PD-L2 expressed on 300.19 cells (human); test: FACS competition, PD-1-Ig on hPD-L2 300 cells, mAb 90 ug/ml
[11] = target: human PD-L1 expressed on 300.19 cells (human) (UniProt Q9NZQ7); test: FACS competition, PD-1-Ig on hPD-L1 300 cells, mAb 3.3 ug/ml
[12] = target: T1, human PD-L2 expressed on 300.19 cells (human); test: FACS on hPD-L2 300 cells, antibody 1 ug/ml
[13] = target: T1, human PD-L2 expressed on 300.19 cells (human); test: FACS competition, PD-1-Ig on hPD-L2 300 cells, mAb 0.04 ug/ml
[14] = target: human PD-L1 expressed on 300.19 cells (human) (UniProt Q9NZQ7); test: FACS on hPD-L1 300 cells, antibody 0.1 ug/ml
[15] = target: human PD-L1 expressed on 300.19 cells (human) (UniProt Q9NZQ7); test: FACS blockade, B7-1-hIgG on 300-hPD-L1 cells, mAb 0.156 ug/ml
[16] = target: T1, human PD-L2 expressed on 300.19 cells (human); test: FACS on hPD-L2 300 cells, antibody 10 ug/ml
[17] = target: human PD-L1 expressed on 300.19 cells (human) (UniProt Q9NZQ7); test: FACS competition, PD-1-Ig on hPD-L1 300 cells, mAb 0.37 ug/ml
[18] = target: T1, human PD-L2 expressed on 300.19 cells (human); test: FACS competition, PD-1-Ig on hPD-L2 300 cells, mAb 10 ug/ml
[19] = target: human PD-L1 expressed on 300.19 cells (human) (UniProt Q9NZQ7); test: FACS blockade, B7-1-hIgG on 300-hPD-L1 cells, mAb 10 ug/ml
[20] = target: human PD-L1 expressed on 300.19 cells (human) (UniProt Q9NZQ7); test: FACS competition, PD-1-Ig on hPD-L1 300 cells, mAb 1.1 ug/ml
[21] = target: T1, human PD-L2 expressed on 300.19 cells (human); test: FACS competition, PD-1-Ig on hPD-L2 300 cells, mAb 0.37 ug/ml
[22] = target: human PD-L1 expressed on 300.19 cells (human) (UniProt Q9NZQ7); test: FACS blockade, B7-1-hIgG on 300-hPD-L1 cells, mAb 5 ug/ml
[23] = target: human PD-L1 expressed on 300.19 cells (human) (UniProt Q9NZQ7); test: FACS competition, PD-1-Ig on hPD-L1 300 cells, mAb 0.04 ug/ml
[24] = target: human PD-L1 expressed on 300.19 cells (human) (UniProt Q9NZQ7); test: FACS blockade, B7-1-hIgG on 300-hPD-L1 cells, mAb 0.625 ug/ml
[25] = target: human PD-L1 expressed on 300.19 cells (human) (UniProt Q9NZQ7); test: FACS blockade, B7-1-hIgG on 300-hPD-L1 cells, mAb 0.0195 ug/ml
[26] = target: T1, human PD-L2 expressed on 300.19 cells (human); test: FACS on hPD-L2 300 cells, antibody 0.1 ug/ml
[27] = target: human PD-L1 expressed on 300.19 cells (human) (UniProt Q9NZQ7); test: FACS blockade, B7-1-hIgG on 300-hPD-L1 cells, mAb 1.25 ug/ml
[28] = target: T1, human PD-L2 expressed on 300.19 cells (human); test: FACS competition, PD-1-Ig on hPD-L2 300 cells, mAb 30 ug/ml
[29] = target: T1, human PD-L2 expressed on 300.19 cells (human); test: FACS competition, PD-1-Ig on hPD-L2 300 cells, mAb 1.1 ug/ml
[30] = target: T1, human PD-L2 expressed on 300.19 cells (human); test: FACS competition, PD-1-Ig on hPD-L2 300 cells, mAb 3.3 ug/ml
[31] = target: human PD-L1 expressed on 300.19 cells (human) (UniProt Q9NZQ7); test: FACS blockade, B7-1-hIgG on 300-hPD-L1 cells, mAb 0.313 ug/ml
[32] = target: human PD-L1 expressed on 300.19 cells (human) (UniProt Q9NZQ7); test: FACS blockade, B7-1-hIgG on 300-hPD-L1 cells, mAb 0.0098 ug/ml
[33] = target: human PD-L1 expressed on 300.19 cells (human) (UniProt Q9NZQ7); test: FACS competition, PD-1-Ig on hPD-L1 300 cells, mAb 0.12 ug/ml
[34] = target: human PD-L1 expressed on 300.19 cells (human) (UniProt Q9NZQ7); test: FACS on hPD-L1 300 cells, antibody 1 ug/ml

Chain of UniProt Q9NZQ7 (Q9NZQ7 19-290): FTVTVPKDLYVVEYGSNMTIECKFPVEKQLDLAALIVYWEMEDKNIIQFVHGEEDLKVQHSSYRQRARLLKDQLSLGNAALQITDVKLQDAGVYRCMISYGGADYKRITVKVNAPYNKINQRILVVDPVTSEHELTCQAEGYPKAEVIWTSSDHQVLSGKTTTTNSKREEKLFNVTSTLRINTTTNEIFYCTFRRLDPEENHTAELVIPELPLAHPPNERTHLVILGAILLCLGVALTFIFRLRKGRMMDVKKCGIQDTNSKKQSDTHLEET

B1: 29E.2A3 (antibody, from a related filing, V domains shown)
VH: EVQLQQSGPELVKPGASVKMSCKASGYTFTSYVMHWVKQKPGQGLEWIGYVNPFNDGTKYNEMFKGKATLTSDKSSSTAYMELSSLTSEDSAVYYCARQAWGYPWGQGTLVTVSA
VL: DIVLTQSPASLAVSLGQRATISCRATESVEYYGTSLVQWYQQKPGQPPKLLIYAASSVDSGVPARFSGSGSGTDFSLTIHPVEEDDIAMYFCQQSRRVPYTFGGGTKLEIK
Mean of PE Signal (bound B7-1-Ig) [1]: 807
Mean of PE Signal (bound B7-1-Ig) [2]: 1230
Mean of PE Signal (bound PD-1-Ig) [3]: 53
Mean of PE signal [4]: 235000
Mean of PE Signal (bound PD-1-Ig) [5]: 52
Mean of PE Signal (bound B7-1-Ig) [6]: 811
Mean of PE Signal (bound PD-1-Ig) [7]: 53900
Mean of PE Signal (bound PD-1-Ig) [8]: 54
Mean of PE Signal (bound B7-1-Ig) [9]: 823
Mean of PE Signal (bound PD-1-Ig) [10]: 55100
Mean of PE Signal (bound PD-1-Ig) [11]: 50
Mean of PE signal [12]: 150
Mean of PE Signal (bound PD-1-Ig) [13]: 58800
Mean of PE signal [14]: 109000
Mean of PE Signal (bound B7-1-Ig) [15]: 853
Mean of PE signal [16]: 251
Mean of PE Signal (bound PD-1-Ig) [17]: 65
Mean of PE Signal (bound PD-1-Ig) [18]: 53800
Mean of PE Signal (bound B7-1-Ig) [19]: 797
Mean of PE Signal (bound PD-1-Ig) [20]: 51
Mean of PE Signal (bound PD-1-Ig) [21]: 52900
Mean of PE Signal (bound B7-1-Ig) [22]: 853
Mean of PE Signal (bound PD-1-Ig) [23]: 6100
Mean of PE Signal (bound B7-1-Ig) [24]: 850
Mean of PE Signal (bound B7-1-Ig) [25]: 1710
Mean of PE signal [26]: 150
Mean of PE Signal (bound B7-1-Ig) [27]: 788
Mean of PE Signal (bound PD-1-Ig) [28]: 53900
Mean of PE Signal (bound PD-1-Ig) [29]: 56100
Mean of PE Signal (bound PD-1-Ig) [30]: 56700
Mean of PE Signal (bound B7-1-Ig) [31]: 770
Mean of PE Signal (bound B7-1-Ig) [32]: 2540
Mean of PE Signal (bound PD-1-Ig) [33]: 523
Mean of PE signal [34]: 234000
